# Patent US20250145689A1 (CIRCULAR COMMITMENT, published 2025)
# T1: Recombinant water soluble human PLVAP (extracellular domain, residues 51-442) (human) (UniProt Q9BX97)
# T1 sequence: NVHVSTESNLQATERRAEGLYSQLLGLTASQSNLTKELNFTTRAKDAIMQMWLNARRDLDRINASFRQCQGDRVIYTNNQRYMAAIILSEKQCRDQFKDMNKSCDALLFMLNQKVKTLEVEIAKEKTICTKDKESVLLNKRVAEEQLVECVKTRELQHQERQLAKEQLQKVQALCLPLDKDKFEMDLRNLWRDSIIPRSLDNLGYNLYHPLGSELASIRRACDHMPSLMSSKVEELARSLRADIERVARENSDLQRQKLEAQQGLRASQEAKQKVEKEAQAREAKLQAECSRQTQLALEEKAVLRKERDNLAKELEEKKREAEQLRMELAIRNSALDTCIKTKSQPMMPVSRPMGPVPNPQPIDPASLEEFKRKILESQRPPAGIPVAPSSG
# T2: Recombinant water soluble mouse PLVAP (extracellular domain, residues 48-438) (mouse, UniProt Q91VC4 48-438)
# T2 construct: The cDNA clone (Invitrogen) is not tied to NP_115774.2 in words; His-tag not reported as removed; also called mPLVAP; His-mPLVAP; not shown: His-tag of the pET-15b vector
# T2 sequence: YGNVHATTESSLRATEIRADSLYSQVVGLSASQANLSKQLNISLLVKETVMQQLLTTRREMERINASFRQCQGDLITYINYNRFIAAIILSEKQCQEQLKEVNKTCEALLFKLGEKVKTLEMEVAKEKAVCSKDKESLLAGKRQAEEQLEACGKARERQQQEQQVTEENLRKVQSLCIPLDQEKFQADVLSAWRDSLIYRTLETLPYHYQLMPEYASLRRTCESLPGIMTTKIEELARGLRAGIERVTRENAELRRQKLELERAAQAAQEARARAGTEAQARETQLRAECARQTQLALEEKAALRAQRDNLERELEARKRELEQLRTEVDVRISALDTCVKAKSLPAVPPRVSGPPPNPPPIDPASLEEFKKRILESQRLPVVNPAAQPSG
# B1: Recombinant Fab fragment of CSRO2 anti-human PLVAP monoclonal antibody co-expressing water-soluble human tissue factor (Fab, part only; not given: Humanized CSRO2 kappa light chain, part only)
# heavy: MQVQLVQSGSELKKPGASVKVSCKASGYTFTSNYINWVRQAPGQGLEWMGNIYPSDGFTNYNQKFKDRVTITVDKSTSTAYMELSSLRSEDTAVYYCTRNFDVWGQGTTVTVSSASTKGPSVFPLAPCSRSTSESTAALGCLVKDYFPEPVTVSWNSGALTSGVHTFPAVLQSSGLYSLSSVVTVPSSSLGTKTYTCNVDHKPSNTKVDKRVESKYGPPCPSCPGGGGSGGGGSGGGGSSGTTNTVAAYNLTWKSTNFKTILEWEPKPVNQVYTVQISTKSGDWKSKCFYTTDTECDLTDEIVKDVKQTYLARVFSYPAGNVESTGSAGEPLYENSPEFTPYLETNLGQPTIQSFEQVGTKVNVTVEDERTLVRRNNTFLSLRDVFGKDLIYTLYYWKSSSSGKKTAKTNTNEFLIDVDKGENYCFSVQAVIPSRTVNRKSTDSPVECMGQEKGEFRE
# B2: Soluble human tissue factor without antibody (other)
# chain: SGTTNTVAAYNLTWKSTNFKTILEWEPKPVNQVYTVQISTKSGDWKSKCFYTTDTECDLTDEIVKDVKQTYLARVFSYPAGNVESTGSAGEPLYENSPEFTPYLETNLGQPTIQSFEQVGTKVNVTVEDERTLVRRNNTFLSLRDVFGKDLIYTLYYWKSSSSGKKTAKTNTNEFLIDVDKGENYCFSVQAVIPSRTVNRKSTDSPVECMGQEKGEFRE
# notes: also called hTF; control soluble hTF
# What was measured:
# [1] = target: Recombinant water soluble mouse PLVAP (extracellular domain, residues 48-438) (mouse) (UniProt Q91VC4); assay: Scatchard analysis; plate-coated recombinant mouse PLVAP, bound Fab-TF measured by chromogenic TF activity; mean ± SD of 6 batches
# [2] = target: Recombinant water soluble mouse PLVAP (extracellular domain, residues 48-438) (mouse) (UniProt Q91VC4); assay: told in the legend of the competitive ELISA; method of the comparison not stated
# [3] = target: Recombinant water soluble mouse PLVAP (extracellular domain, residues 48-438) (mouse) (UniProt Q91VC4); assay: competitive ELISA on plate-coated mouse PLVAP; competitor biotinylated MECA32 mAb
# [4] = target: T1, Recombinant water soluble human PLVAP (extracellular domain, residues 51-442) (human); assay: Scatchard analysis; plate-coated recombinant human PLVAP, bound Fab-TF measured by chromogenic TF activity; mean ± SD of 3 batches
# [5] = target: T2, Recombinant water soluble mouse PLVAP …; assay: ELISA on plate-coated mouse PLVAP, detected with biotinylated anti-hTF antibody
# Procedure: Each well of the assay plate was coated with water soluble extracellular domain of mouse PLVAP protein. After blocking, the coated wells were incubated with increasing concentrations of MECA32-hTF. One well was incubated with human tissue factor (hTF). Binding of MECA32-hTF to PLVAP was detected with biotinylated anti-hTF antibody from R&D Systems, Inc. (Minneapolis, MN) and strepavidin-alkaline phosphotase conjugate from Thermo Scientific, Inc. (Rockford, IL).
molecule,measurement,setting,value
Fab fragment of MECA32 anti-mouse PLVAP monoclonal antibody co-expressing human tissue factor,Kd,[1],57.2 nM
same,binding affinity against MECA32 mAb,[2],1 log lower
Rat anti-mouse PLVAP MECA32 monoclonal antibody,potency in competition against MECA32-Fab-TF,[3],1 log
B1,Kd,[4],30.7 nM
B2,binding result,[5],no binding
